According to IntAct's records for PubMed 14978263:

Molecular target: csk21_arath CKA1 (UniProt Q08467)
Sequence (Q08467 whole entry): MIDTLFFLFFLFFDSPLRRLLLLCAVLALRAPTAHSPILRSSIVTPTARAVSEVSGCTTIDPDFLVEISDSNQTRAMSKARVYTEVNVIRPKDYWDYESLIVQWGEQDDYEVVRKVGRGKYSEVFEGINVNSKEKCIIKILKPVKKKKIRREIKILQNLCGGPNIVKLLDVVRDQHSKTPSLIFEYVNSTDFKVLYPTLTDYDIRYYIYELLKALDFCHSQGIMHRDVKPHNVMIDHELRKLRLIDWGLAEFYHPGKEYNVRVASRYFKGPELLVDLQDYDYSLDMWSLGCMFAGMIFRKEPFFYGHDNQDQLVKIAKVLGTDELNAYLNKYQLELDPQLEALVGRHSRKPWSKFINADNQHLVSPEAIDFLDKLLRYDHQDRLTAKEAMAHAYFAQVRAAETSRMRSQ

Chain of Protein CCA1 (Arabidopsis thaliana (Mouse-ear cress)), P92973 S5A (P92973 whole entry S5A): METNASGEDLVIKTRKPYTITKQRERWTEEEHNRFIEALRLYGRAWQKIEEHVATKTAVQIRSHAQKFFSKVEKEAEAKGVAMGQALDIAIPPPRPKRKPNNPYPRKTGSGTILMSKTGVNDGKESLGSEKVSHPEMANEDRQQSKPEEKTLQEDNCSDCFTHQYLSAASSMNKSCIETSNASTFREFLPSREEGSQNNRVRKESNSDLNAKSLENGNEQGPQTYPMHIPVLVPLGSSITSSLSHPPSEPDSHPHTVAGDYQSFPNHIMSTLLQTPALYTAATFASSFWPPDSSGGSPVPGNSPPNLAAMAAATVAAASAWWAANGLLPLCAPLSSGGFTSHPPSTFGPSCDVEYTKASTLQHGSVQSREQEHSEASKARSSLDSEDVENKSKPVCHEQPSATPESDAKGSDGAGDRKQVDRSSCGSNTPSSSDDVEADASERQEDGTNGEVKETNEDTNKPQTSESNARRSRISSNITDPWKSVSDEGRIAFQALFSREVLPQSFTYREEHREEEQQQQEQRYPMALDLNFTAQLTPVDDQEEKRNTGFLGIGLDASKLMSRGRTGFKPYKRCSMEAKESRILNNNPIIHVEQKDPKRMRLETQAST
Chain of Protein CCA1 (Arabidopsis thaliana (Mouse-ear cress)), P92973 S6A (P92973 whole entry S6A): as the sequence (P92973 whole entry S5A) above, with A5S, S6A counted along it

Row | effect of a mutation on the interaction | Substance
1 | decreasing interaction | Protein CCA1 (Arabidopsis thaliana (Mouse-ear cress)), P92973 S432A
2 | decreasing interaction | Protein CCA1 (Arabidopsis thaliana (Mouse-ear cress)), P92973 S6A
3 | decreasing interaction | Protein CCA1 (Arabidopsis thaliana (Mouse-ear cress)), P92973 S5A
4 | decreasing interaction | Protein CCA1 (Arabidopsis thaliana (Mouse-ear cress)), P92973 S484A
5 | decreasing interaction | Protein CCA1 (Arabidopsis thaliana (Mouse-ear cress)), P92973 S431A
6 | decreasing interaction | Protein CCA1 (Arabidopsis thaliana (Mouse-ear cress)), P92973 S433A
